Patent publication US20110158985A1
Changes are numbered by the printed parent chain.

Substrate: F protein of RSV (Long strain) (RSV (Long strain)) (UniProt P12568)
Experiment: cell-based or functional assay

Sequence of F protein of RSV (Long strain) (RSV (Long strain)) (P12568 26-574): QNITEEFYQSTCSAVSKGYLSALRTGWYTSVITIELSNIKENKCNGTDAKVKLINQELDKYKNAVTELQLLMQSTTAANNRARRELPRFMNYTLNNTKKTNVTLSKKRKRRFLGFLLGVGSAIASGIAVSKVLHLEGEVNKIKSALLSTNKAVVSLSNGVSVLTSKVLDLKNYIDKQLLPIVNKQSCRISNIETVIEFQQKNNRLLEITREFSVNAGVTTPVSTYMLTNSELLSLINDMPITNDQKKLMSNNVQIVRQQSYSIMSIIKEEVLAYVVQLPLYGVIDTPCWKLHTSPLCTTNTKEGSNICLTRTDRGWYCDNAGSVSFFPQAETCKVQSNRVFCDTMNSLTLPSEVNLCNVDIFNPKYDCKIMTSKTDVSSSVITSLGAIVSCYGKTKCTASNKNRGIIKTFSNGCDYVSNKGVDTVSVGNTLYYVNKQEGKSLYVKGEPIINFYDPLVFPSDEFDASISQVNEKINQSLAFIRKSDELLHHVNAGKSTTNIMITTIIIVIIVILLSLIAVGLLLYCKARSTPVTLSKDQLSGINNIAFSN

B1: P12f4 Fab (Fab, V domains shown)
VH: QVTLRESGPALVKPTQTLTLTCTFSGFSLSTPGMSVGWIRQPPGKALEWLADIWWDGKKHYNPSLKDRLTISKDTSKNQVVLKVTNMDPADTATYYCARDMIFNFYFDVWGQGTTVTVSS
VL: DIQMTQSPSTLSASVGDRVTITCSLSSRVGYMHWYQQKPGKAPKLLIYDTRGLPSGVPSRFSGSGSGTEFTLTISSLQPDDFATYYCFQGSGYPFTFGGGTKVEIK
B1 was tested, and the IC50 was 0.7 nM, the Mean IC50 (Control) was 0.0351 µg/mL and the Mean IC50 (Curve) was 0.0464 µg/mL.

B2: A1h5 Fab (Fab, V domains shown)
VH: B1 VH with P32A, F105W
VL: B1 VL with R28S, R51F, G52F, L53H, P54R
For B2, the Mean IC50 (Control) was 0.176 µg/mL and the Mean IC50 (Curve) was 0.194 µg/mL.
